Assay results from patent EP1117807B1.

Molecular target: HMW protein antigen of the anti-HMW EIA
Assay: antigen-specific EIA, control chinchilla serum IgG titer on coated antigen, second experiment

serum of control chinchillas immunized with alum alone (antibody)
Anti-HMW antibody titers Log2 (Titers/100) (Log2 (Titers/100)): < 0.05
